According to US20140011747A1 (WISCONSIN ALUMNI RESEARCH FOUNDATION, published 2014):
Blank lines part the entries; values can stand above or below the binder they belong to. Ends that are not written are not given here.

Assays:
[1] = molecular target: T1, epidermal growth factor receptor (EGFR), endogenous in human cell lines (human, UniProt P00533 25-1210); experiment: cell-based or functional assay
[2] = molecular target: T2, β4^R1733A mutant of the β4 cytoplasmic domain (binding construct) (human, UniProt P16144-2 1677-1752); experiment: binding of β4 cytoplasmic domain mutants to syndecan
T2 construct: not shown: 6×His tag and leader of the pTRC-His A vector
T2 sequence (looked up): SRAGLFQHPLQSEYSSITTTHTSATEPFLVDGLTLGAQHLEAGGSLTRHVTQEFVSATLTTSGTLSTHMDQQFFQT

[3] = molecular target: T1, epidermal growth factor receptor …; experiment: co-immunoprecipitation from lysates of MCF10A and BT474 cells, western blot
Method: (§1) Cells were washed once with washing buffer (50 mM Hepes, 50 mM NaCl and 10 mM EDTA, pH 7.4) and lysed for 20 min on ice in 1% Triton X-100 containing a 1:1000 dilution of protease inhibitor mixture set III (Calbiochem) in washing buffer. Cell debris was removed by centrifugation at 20,000 g for 15 min at 4° C. […] Visualization of immune-reactive bands was performed using ECF reagent (GE Healthcare) and scanned on a Typhoon Trio Variable Mode Imager (GE-Healthcare) in blue fluorescence.

[4] = molecular target: T1, epidermal growth factor receptor …; experiment: co-immunoprecipitation of mouse syndecan chimeras from HaCat cells, western blot
Method: (FIG. 6A) Mouse syndecan chimeras in which their ectodomains are switched are expressed in HaCat cells, then immunoprecipitated with antibodies specific for the mouse syndecan ectodomains. […] HER2 or EGFR are immunoprecipitated from the lysates directly for comparison.
as §1

B5: SSTNEGFR synthetic peptide with amino acids 99-108 mutated to alanine (peptide)
peptide: NHIPERAGSGSQAAAAAAAAAANEVIPKRISPVEESEDVSNKVSM
activity against EGF-stimulated cell migration, relative to SSTNEGFR [1]: 10 fold reduction

B6: GST-S4ED, recombinant Sdc4 ectodomain fused to GST (other, UniProt P31431 19-145, looked up, not shown: a dimerising Fc or GST)
chain: ESIRETEVIDPQDLLEGRYFSGALPDDEDVVGPGQESDDFELSGSGDLDDLEDSMIGPEVVHPLVPLDNHIPERAGSGSQVPTEPKKLEENEVIPKRISPVEESEDVSNKVSMSSTVQGSNIFERTE
IC50, EGF-stimulated chemotaxis of MCF10A cells or HaCat keratinocytes [1]: 100 to 300 nM

B7: SSTNEGFR synthetic peptide truncated of amino acids 126-131 (peptide)
peptide: NHIPERAGSGSQVPTEPKKLEENEVIPKRISPVEESEDV
activity against EGF-stimulated cell migration, relative to SSTNEGFR [1]: ≥ 100 fold reduction

Continued, values first:

IC50, EGF-stimulated migration of MCF10A cells, scratch wound closure [1]: 100 to 300 nM
B1: SSTNEGFR, synthetic peptide of amino acids 87-131 of the human Sdc4 ectodomain (peptide)
peptide: NHIPERAGSGSQVPTEPKKLEENEVIPKRISPVEESEDVSNKVSM

binding result [2]: no binding
B2: GST-S1CD, Sdc1 cytoplasmic domain fused to GST (other)
chain: {GST}-RMKKKDEGSYSLEEPKQANGGAYQKPTKQEEFYA
notes: The result sentences say only Sdc1; not shown: glutathione S-transferase (GST) fusion partner

binding result [3]: no binding
B3: syndecan-1 (Sdc1), human, endogenous in human cell lines (receptor, UniProt P18827 23-310, looked up)
chain: QIVATNLPPEDQDGSGDDSDNFSGSGAGALQDITLSQQTPSTWKDTQLLTAIPTSPEPTGLEATAASTSTLPAGEGPKEGEAVVLPEVEPGLTAREQEATPRPRETTQLPTTHLASTTTATTAQEPATSHPHRDMQPGHHETSTPAGPSQADLHTPHTEDGGPSATERAAEDGASSQLPAAEGSGEQDFTFETSGENTAVVAVEPDRRNQSPVDQGATGASQGLLDRKEVLGGVIAGGLVGLIFAVCLVGFMLYRMKKKDEGSYSLEEPKQANGGAYQKPTKQEEFYA
notes: whole, on cells; Used as the comparison for Sdc4 in co-immunoprecipitation

binding result [4]: no binding
B4: mouse syndecan chimera: mSdc4 with its ectodomain swapped for that of Sdc1 (receptor, UniProt P18828 23-255, looked up)
chain: QIVAVNVPPEDQDGSGDDSDNFSGSGTGALPDTLSRQTPSTWKDVWLLTATPTAPEPTSSNTETAFTSVLPAGEKPEEGEPVLHVEAEPGFTARDKEKEVTTRPRETVQLPITQRASTVRVTTAQAAVTSHPHGGMQPGLHETSAPTAPGQPDHQPPRVEGGGTSVIKEVVEDGTANQLPAGEGSGEQDFTFETSGENTAVAAVEPGLRNQPPVDEGATGASQSLLDRKEVLGVLAALIVGGVVGILFAVFLILLLVYRMKKKDEGSYDLGKKPIYKKAPTNEFYA
notes: extracellular domain;domain: transmembrane and cytoplasmic domains; Expressed in HaCat cells; also called Sdc4 displaying the Sdc1 ectodomain
